The sequences below were run on Escherichia coli TOP10 (assay: shrunken log2 fold change of peptide-encoding DNA abundance (4.5 h post-induction vs induction); higher = less antimicrobial activity (less host growth inhibition)). Settings: time post-induction: 4.5 h; library: site-saturation at positions 5, 18, 19, 20.
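Also: peptides expressed intracellularly from a pBAD plasmid library in pooled LB shake-flask culture, induced with 0.3% L-arabinose, DNA abundance read by NGS, three biological replicates, DESeq2 with apeglm shrinkage.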

Row | Sequence | shrunken log2 fold change
1 | RRIRVRPPRLPRPRPRPQQEPRP | 0.0458
2 | RRIRNRPPRLPRPRPRPPQSPRP | 0.331
3 | RRIRLRPPRLPRPRPRPRVYPRP | 0.224
4 | RRIRNRPPRLPRPRPRPTKEPRP | -0.0307
5 | RRIRTRPPRLPRPRPRPQCKPRP | -0.26
6 | RRIRWRPPRLPRPRPRPLLGPRP | 0.875
7 | RRIRQRPPRLPRPRPRPDRWPRP | 0.37
8 | RRIRNRPPRLPRPRPRPGNPPRP | 0.0273
9 | RRIRHRPPRLPRPRPRPGCFPRP | -0.181
10 | RRIRNRPPRLPRPRPRPLMDPRP | 0.0545
11 | RRIRWRPPRLPRPRPRPSDYPRP | 0.0192
12 | RRIRERPPRLPRPRPRPPSLPRP | -0.0799
13 | RRIRERPPRLPRPRPRPFYSPRP | -0.795
14 | RRIRWRPPRLPRPRPRPAFGPRP | 0.53
15 | RRIRARPPRLPRPRPRPDCHPRP | 1.05
16 | RRIRVRPPRLPRPRPRPQTPPRP | 0.546
17 | RRIRIRPPRLPRPRPRPKATPRP | -0.141
18 | RRIRIRPPRLPRPRPRPRGMPRP | 0.0423
19 | RRIRMRPPRLPRPRPRPVILPRP | -0.826
20 | RRIRFRPPRLPRPRPRPQEFPRP | 0.0412

Row | Sequence | shrunken log2 fold change
21 | RRIRFRPPRLPRPRPRPSRCPRP | -0.0633
22 | RRIRMRPPRLPRPRPRPSFVPRP | -0.0144
23 | RRIRNRPPRLPRPRPRPPLFPRP | 0.00419
24 | RRIRVRPPRLPRPRPRPYCWPRP | -0.0314
25 | RRIRCRPPRLPRPRPRPWMHPRP | -0.621
26 | RRIRYRPPRLPRPRPRPPSGPRP | 0.0974
27 | RRIRARPPRLPRPRPRPQDAPRP | 0.215
28 | RRIRWRPPRLPRPRPRPFKEPRP | -0.139
29 | RRIRERPPRLPRPRPRPYIIPRP | -0.837
30 | RRIRHRPPRLPRPRPRPIYCPRP | -0.0143
31 | RRIRIRPPRLPRPRPRPAIPPRP | -0.169
32 | RRIRVRPPRLPRPRPRPATTPRP | 0.0611
33 | RRIRYRPPRLPRPRPRPKFAPRP | -0.44
34 | RRIRERPPRLPRPRPRPVFKPRP | -0.228
35 | RRIRMRPPRLPRPRPRPMMFPRP | 0.251
36 | RRIRSRPPRLPRPRPRPTSEPRP | 0.292
37 | RRIRNRPPRLPRPRPRPVPVPRP | -0.0667
38 | RRIRQRPPRLPRPRPRPAVLPRP | 0.0386
39 | RRIRLRPPRLPRPRPRPPWPPRP | 0.578
40 | RRIRTRPPRLPRPRPRPRMSPRP | -0.259

Row | Sequence | shrunken log2 fold change
41 | RRIRLRPPRLPRPRPRPPQWPRP | 0.322
42 | RRIRYRPPRLPRPRPRPNPMPRP | -0.788
43 | RRIRCRPPRLPRPRPRPLTSPRP | 0.208
44 | RRIRFRPPRLPRPRPRPLPPPRP | 0.828
45 | RRIRMRPPRLPRPRPRPRRCPRP | 1.08
46 | RRIRARPPRLPRPRPRPWPSPRP | -0.0645
47 | RRIRWRPPRLPRPRPRPVAYPRP | -0.0891
48 | RRIRLRPPRLPRPRPRPGWKPRP | -0.0726
49 | RRIRCRPPRLPRPRPRPIGLPRP | 0.00863
50 | RRIRNRPPRLPRPRPRPPCDPRP | -0.0173
51 | RRIRRRPPRLPRPRPRPWNFPRP | -0.0355
52 | RRIRNRPPRLPRPRPRPSLHPRP | -0.621
53 | RRIRTRPPRLPRPRPRPSRAPRP | 0.271
54 | RRIRKRPPRLPRPRPRPFPEPRP | 0.273
55 | RRIRKRPPRLPRPRPRPKDDPRP | 0.0898
56 | RRIRNRPPRLPRPRPRPPKIPRP | 0.0999
57 | RRIRQRPPRLPRPRPRPFQNPRP | -0.179
58 | RRIRQRPPRLPRPRPRPTENPRP | 0.0631
59 | RRIRTRPPRLPRPRPRPPRLPRP | 0.343
60 | RRIRDRPPRLPRPRPRPPNSPRP | -0.0992

Source: the supplement of paper PMC9112550, “Optimization of the antimicrobial peptide Bac7 by deep mutational scanning” (BMC Biology, 2022)
